pIC50: −log10 of the molar value. Peptide text beside a SMILES is read from it.

One assay has as its target T1, hSortilin (Homo sapiens, UniProt Q99523).
T1 sequence (Q99523 78-831): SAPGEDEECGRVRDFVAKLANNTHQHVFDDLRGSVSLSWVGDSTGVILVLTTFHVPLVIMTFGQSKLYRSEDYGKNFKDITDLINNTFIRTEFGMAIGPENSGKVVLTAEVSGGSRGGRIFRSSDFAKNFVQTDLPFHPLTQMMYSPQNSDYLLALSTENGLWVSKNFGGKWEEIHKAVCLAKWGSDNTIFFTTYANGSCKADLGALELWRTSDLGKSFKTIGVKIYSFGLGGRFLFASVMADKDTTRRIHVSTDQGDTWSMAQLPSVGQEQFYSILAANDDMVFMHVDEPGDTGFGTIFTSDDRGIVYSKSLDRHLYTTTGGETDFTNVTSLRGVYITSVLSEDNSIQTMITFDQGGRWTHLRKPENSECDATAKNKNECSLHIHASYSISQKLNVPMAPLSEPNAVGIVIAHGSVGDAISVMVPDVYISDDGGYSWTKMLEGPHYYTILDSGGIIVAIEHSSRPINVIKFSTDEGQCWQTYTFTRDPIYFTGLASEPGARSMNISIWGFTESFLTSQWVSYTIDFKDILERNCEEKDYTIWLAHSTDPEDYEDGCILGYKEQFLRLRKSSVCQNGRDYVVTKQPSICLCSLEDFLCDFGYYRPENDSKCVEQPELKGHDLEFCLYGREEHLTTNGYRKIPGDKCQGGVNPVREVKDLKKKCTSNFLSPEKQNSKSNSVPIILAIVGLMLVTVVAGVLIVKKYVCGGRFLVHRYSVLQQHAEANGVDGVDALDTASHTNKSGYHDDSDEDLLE
The assay can be described thus: Neurotensin scintillation proximity assay (displacement of [3H]-neurotensin binding). As to conditions: displacement of 5 nM [3H]-neurotensin from 150 nM 6his-Sortilin; average of at least 2 determinations; read-out: IC50 [3H]Neurotensin SPA. As for the experimental part:
The data of exemplified compounds of the invention tested in a Neurotensin (NTS) scintillation proximity assay (SPA). NTS, which is a 13 amino acid neuropeptide, is a sortilin ligand. The IC50 is a measure of the amount of the compound required to inhibit the binding of NTS to sortilin by 50%.
Compound affinity was determined by measuring the displacement of [^3H]-neurotensin binding to hSortilin in SPA format. Total volume of 40 μl in 50 mM HEPES pH 7.4 assay buffer containing 100 mM NaCl, 2.0 mM CaCl2, 0.1% BSA and 0.1% Tween-20. Compound pre-incubation for 30 minutes at room temperature with 150 nM of 6his-Sortilin before 5 nM [3H]-Neurotensin and Ni chelate imaging beads (Perkin Elmer) were added, after 6 hours the plate was read on a ViewLux with 360 s exposure time. Dose-response evaluation of compounds was performed with 8 concentrations of drugs (covering 3 decades). IC50 values were calculated by nonlinear regression using the sigmoid concentration-response (variable slope) using CDD Vault software. All values reported are average of at least 2 determinations.
On to `CC[C@H](C)[C@H](NC(=O)[C@H](Cc1ccc(O)cc1)NC(=O)[C@H]1CN(C(C)=O)CCO1)C(=O)N[C@@H](CCC(C)(C)C)C(=O)O` [Example 25, (S)-2-((2S,3S)-2-((S)-2-((R)-4-Acetylmorpholine-2-carboxamido)-3-(4-hydroxyphenyl)propanamido)-3-methylpentanamido)-5,5-dimethylhexanoic acid], for which the pIC50 is 6.85.
`CC[C@H](C)[C@H](NC(=O)[C@H](Cc1ccc(O)cc1)NC(=O)[C@H]1COCCN1)C(=O)N[C@@H](CCC(C)(C)C)C(=O)O` [Example 23, (S)-2-((2S,3S)-2-((S)-3-(4-Hydroxyphenyl)-2-((R)-morpholine-3-carboxamido)propan amido)-3-methylpentanamido)-5,5-dimethylhexanoic acid]: the pIC50 was 7.00.
In the case of `CC[C@H](C)[C@H](NC(=O)[C@H](Cc1ccc(O)cc1)NC(=O)[C@H]1CCNC1)C(=O)N[C@@H](CCC(C)(C)C)C(=O)O` [Example 20, (S)-2-((2S,3S)-2-((S)-3-(4-Hydroxyphenyl)-2-((S)-pyrrolidine-3-carboxamido)propan amido)-3-methylpentanamido)-5,5-dimethylhexanoic acid], the negative-log IC50 (pIC50) was 6.82.
On the same count and under the same terms, the figure for `Cn1cnc(C[C@H](NC(=O)[C@H](Cc2ccc(O)cc2)NC(=O)[C@@H]2CCCN2)C(=O)N[C@@H](CCC(C)(C)C)C(=O)O)c1` [Example 7, (S)-2-((S)-2-((S)-3-(4-Hydroxyphenyl)-2-((S)-pyrrolidine-2-carboxamido)propan amido)-3-(1-methyl-1H-imidazol-4-yl)propanamido)-5,5-dimethylhexanoic acid] (HELM PEPTIDE1{P.Y.[Cn1cnc(C[C@H](N[*:1])C(=O)[*:2])c1].[CC(C)(C)CC[C@H](N[*:1])C(=O)O]}$$$$V2.0) is 6.43; for `CC[C@H](C)[C@H](NC(=O)[C@H](C)NC(=O)[C@@H]1CCCN1)C(=O)N[C@@H](CCC(C)(C)C)C(=O)O` [Example 17, (2S)-5,5-Dimethyl-2-((3S)-3-methyl-2-((S)-2-((S)-pyrrolidine-2-carboxamido)propan amido)pentanamido) hexanoic acid] (HELM PEPTIDE1{P.A.I.[CC(C)(C)CC[C@H](N[*:1])C(=O)O]}$$$$V2.0) it is 7.15; for `CC[C@H](C)[C@H](NC(=O)[C@H](Cc1ccc(O)cc1)NC(C)=O)C(=O)N[C@@H](CCC(F)(F)F)C(=O)O` [Example 3, (S)-2-((2S,3S)-2-((S)-2-Acetamido-3-(4-hydroxyphenyl)propanamido)-3-methylpentanamido)-5,5,5-trifluoropentanoic acid] it is 5.95.
As for `Cn1cncc1C[C@H](NC(=O)[C@H](Cc1ccc(O)cc1)NC(=O)[C@@H]1CCCN1)C(=O)N[C@@H](CCC(C)(C)C)C(=O)O` [Example 32, (S)-2-((S)-2-((S)-3-(4-Hydroxyphenyl)-2-((S)-pyrrolidine-2-carboxamido)propan amido)-3-(1-methyl-1H-imidazol-5-yl)propanamido)-5,5-dimethylhexanoic acid.di-formic acid] (HELM PEPTIDE1{P.Y.[Cn1cncc1C[C@H](N[*:1])C(=O)[*:2]].[CC(C)(C)CC[C@H](N[*:1])C(=O)O]}$$$$V2.0), the negative-log IC50 (pIC50) is 7.00.
With `CC(C)(C)CC[C@H](NC(=O)[C@H](Cc1c[nH]c2ccccc12)NC(=O)[C@H](Cc1ccc(O)cc1)NC(=O)[C@@H]1CCCN1)C(=O)O` [Example 14, (S)-2-((S)-2-((S)-3-(4-Hydroxyphenyl)-2-((S)-pyrrolidine-2-carboxamido)propan amido)-3-(1H-indol-3-yl)propanamido)-5,5-dimethylhexanoic acid] (HELM PEPTIDE1{P.Y.W.[CC(C)(C)CC[C@H](N[*:1])C(=O)O]}$$$$V2.0), the pIC50 was 7.22.
Turning to `CC[C@H](C)[C@H](NC(=O)[C@H](Cc1ccc(O)cc1)NC(=O)[C@@H]1CCCO1)C(=O)N[C@@H](CCC(F)(F)F)C(=O)O` [Example 1, (S)-5,5,5-Trifluoro-2-((2S,3S)-2-((S)-3-(4-hydroxyphenyl)-2-((S)-tetrahydrofuran-2-carboxamido)propanamido)-3-methylpentanamido)pentanoic acid], the pIC50 was 5.50.

Another assay addresses 6his-Sortilin (human) (UniProt Q99523). Nature of the assay: SPA, displacement of [3H]-neurotensin from 6his-Sortilin.
Conditions: not given
(Loss of bound radioactivity is the signal in a displacement assay; it reports binding, not function.)
In turn, “(S)-2-((2S,3S)-2-((S)-3-(4-Hydroxyphenyl)-2-((S)-pyrrolidine-3-carboxamido)propanamido)-3-methylpentanamido)-5,5-dimethylhexanoic acid (peptide)” gave a negative logarithm of the IC50 (pIC50) of 6.82.
Consider “(S)-2-((S)-2-((S)-5-Amino-5-oxo-2-((S)-pyrrolidine-2-carboxamido)pentanamido)-3-(thiazol-4-yl)propanamido)-5,5-dimethylhexanoic acid (peptide)”, for which the pIC50 is 7.22.
“(S)-2-((S)-2-((S)-3-(4-Hydroxyphenyl)-2-((S)-pyrrolidine-2-carboxamido)propanamido)-3-morpholinopropanamido)-5,5-dimethylhexanoic acid (peptide)” showed a negative-log IC50 (pIC50) of 6.80.
For “(S)-2-((S)-2-((S)-3-(4-Hydroxyphenyl)-2-((S)-pyrrolidine-2-carboxamido)propanamido)-3-(1H-indol-3-yl)propanamido)-5,5-dimethylhexanoic acid (peptide)”, the pIC50 was 7.22.
“(S)-2-((2S,3S)-2-((S)-3-(4-Hydroxyphenyl)-2-((S)-piperazine-2-carboxamido)propanamido)-3-methylpentanamido)-5,5-dimethylhexanoic acid (peptide)” gave a pIC50 of 7.00.
Still for that read-out and setting: as for “(S)-2-((2S,3S)-2-((S)-3-(4-Hydroxyphenyl)-2-((R)-morpholine-2-carboxamido)propanamido)-3-methylpentanamido)-5,5-dimethylhexanoic acid (peptide)”, the figure is 7.05.
The same measure, in the same setting: as for “(S)-2-((S)-2-((S)-3-(4-Hydroxyphenyl)-2-((S)-pyrrolidine-2-carboxamido)propanamido)-3-(1-methyl-1H-imidazol-4-yl)propanamido)-5,5-dimethylhexanoic acid (peptide)”, the figure is 6.43.
Consider “(S)-2-((S)-2-((S)-3-(4-Hydroxyphenyl)-2-((S)-pyrrolidine-2-carboxamido)propanamido)-3-(pyridin-4-yl)propanamido)-5,5-dimethylhexanoic acid (peptide)”, for which the pIC50 is 6.70.
On to “(S)-2-((S)-2-((S)-4-Amino-4-oxo-2-((S)-pyrrolidine-2-carboxamido)butanamido)-3-(thiazol-4-yl)propanamido)-5,5-dimethylhexanoic acid (peptide)”, for which the negative-log IC50 (pIC50) is 7.05.
In the case of “(S)-2-((2S,3S)-2-((S)-3-(4-Hydroxyphenyl)-2-((R)-piperazine-2-carboxamido)propanamido)-3-methylpentanamido)-5,5-dimethylhexanoic acid (peptide)”, the negative-log IC50 (pIC50) was 6.96.
On the same count and under the same terms, as for “(S)-2-((S)-2-((S)-3-(4-Hydroxyphenyl)-2-((S)-pyrrolidine-2-carboxamido)propanamido)-3-(thiazol-4-yl)propanamido)-5,5-dimethylhexanoic acid (peptide)”, the figure is 7.15.
In turn, “(S)-2-((S)-2-((S)-3-(4-Hydroxyphenyl)-2-((S)-pyrrolidine-2-carboxamido)propanamido)-3-(1-methyl-1H-imidazol-5-yl)propanamido)-5,5-dimethylhexanoic acid.di-formic acid (peptide)” showed a pIC50 of 7.00.
“(S)-2-((S)-2-((S)-3-(4-Hydroxyphenyl)-2-((S)-pyrrolidine-2-carboxamido)propanamido)-3-(pyridin-3-yl)propanamido)-5,5-dimethylhexanoic acid (peptide)” gave a pIC50 of 7.05.
In the case of “(S)-2-((S)-2-((S)-3-(4-Hydroxyphenyl)-2-((S)-pyrrolidine-2-carboxamido)propanamido)-3-(thiophen-3-yl)propanamido)-5,5-dimethylhexanoic acid (peptide)”, the pIC50 was 6.85.
Turning to “(S)-2-((2S,3S)-2-((S)-3-(4-Hydroxyphenyl)-2-((R)-morpholine-3-carboxamido)propanamido)-3-methylpentanamido)-5,5-dimethylhexanoic acid (peptide)”, the pIC50 was 7.00.
“(S)-2-((2S,3S)-2-((S)-3-(4-Hydroxyphenyl)-2-((S)-morpholine-2-carboxamido)propanamido)-3-methylpentanamido)-5,5-dimethylhexanoic acid (peptide)” showed a pIC50 of 7.15.

What is called pIC50 is the IC50 on a negative log10 scale, so that one unit is a factor of ten.

For the origin of these results see patent US20240294569A1, “MODULATORS OF SORTILIN ACTIVITY” (Insusense ApS, priority 2021, published 2024).
